Consider one molecule from US20250121076A1, “POLYPEPTIDE DRUG CONJUGATE HAVING NOVEL STRUCTURE AND APPLICATION THEREOF” (MEDSHINE DISCOVERY INC., priority 2021, published 2025).

Structures can show the parent of a compound that is named as a salt. Starred links: 1 amine or outer side, 2 acyl side, 3 side chain; linkers in the order of their positions; H or OH if unused. Positions of bridges follow the written chain, without caps; N, C: chain ends. Non-standard residues stand in square brackets, D forms with d. Residues, ends and D or L forms follow the SMILES beside them. Chains are numbered I, II in the order given. *: point of attachment. TATA = O=C(CC[*:1])N1CN(C(=O)CC[*:2])CN(C(=O)CC[*:3])C1; Dolaproine = CO[C@@H]([C@@H]1CCCN1)[C@@H](C)C(=O)O; Dil = CC[C@H](C)[C@H](NC)[C@@H](CC(=O)O)OC; X2 = O=C(CCCC(=O)[*:2])NCCC(=O)[*:1]; PABC = O=C(OCc1ccc(N[*:1])cc1)[*:2]; X1 = C[C@@H](N*)[C@@H](O)c1ccccc1; Hyp = O=C(O)[C@@H]1C[C@@H](O)CN1; hArg = N=C(N)NCCCC[C@H](N)C(=O)O; Cit = NC(=O)NCCC[C@H](N)C(=O)O; Pen = CC(C)(S)[C@H](N)C(=O)O; NMeV = CN[C@H](C(=O)O)C(C)C; Sar = CNCC(=O)O

Data set [1] in a line: Metabolic stability in hepatocytes. To be noted: human hepatocytes, 1 μM, 0.5×10^6 cells/mL. In kind it is in vitro ADME, Humans. As to the method:
To investigate the metabolic stability of the compounds of the present invention in hepatocytes from Cynomolgus macaques and humans.
Incubations were performed in 96-well plates using an external extraction method. Several 96-well sample precipitation plates, designated T0, T15, T30, T60, T90, T0-MC, T90-MC, and blank matrix, were prepared, respectively. The recovery culture medium and incubation culture medium were removed in advance and placed in a 37° C. water bath for preheating. Frozen hepatocytes from Cynomolgus macaques and humans were removed from a liquid nitrogen tank, recovered, and diluted to 0.51×10^6 cells/mL with the incubation culture medium. […]
At the end of the incubation at the corresponding time point, the incubation plates were removed, from which 25 μL of a compound mixture with the cells was removed and added to sample plates containing 125 μL of stop buffer. […] All samples were mixed uniformly and then analyzed by the LC-MS/MS method.
The concentration of the compound of the present invention in the sample was semi-quantitatively determined by the liquid chromatography-tandem mass spectrometry (LC-MS/MS) method without a standard curve and quality control sample. […]

A further data set deals with T1, Human EphA2 (Homo sapiens, UniProt P29317).
T1 construct: purchased Sino Biological 13926-H08HD
T1 sequence (P29317 24-534 limits assumed): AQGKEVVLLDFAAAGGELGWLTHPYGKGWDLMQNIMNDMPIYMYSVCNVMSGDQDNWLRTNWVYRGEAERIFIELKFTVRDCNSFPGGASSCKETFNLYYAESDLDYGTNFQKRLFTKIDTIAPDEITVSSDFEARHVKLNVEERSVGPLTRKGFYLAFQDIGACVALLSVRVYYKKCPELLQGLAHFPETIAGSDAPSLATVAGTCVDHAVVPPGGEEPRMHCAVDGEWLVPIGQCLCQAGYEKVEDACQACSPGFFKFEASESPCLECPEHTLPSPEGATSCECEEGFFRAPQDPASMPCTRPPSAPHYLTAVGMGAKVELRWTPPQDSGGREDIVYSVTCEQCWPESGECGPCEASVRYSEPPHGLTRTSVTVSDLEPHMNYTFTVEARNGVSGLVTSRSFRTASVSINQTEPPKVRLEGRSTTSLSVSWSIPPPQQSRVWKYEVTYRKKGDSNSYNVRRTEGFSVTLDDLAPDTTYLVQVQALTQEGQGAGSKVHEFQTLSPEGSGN
In words: Binding capacity test to EphA2 protein (SPR, Biacore 8K). On the procedure: To detect the affinity of the compound to be tested to the target protein EphA2 using the SPR method.
• Biacore 8K (GE Healthcare). • 96-well Plate (Cat #650101, greiner bio-one) • CM5 chip (Cat #BR-1005-30, GE Healthcare) • Amine Coupling Kit (Cat #BR-1000-50, GE Healthcare) EDC NHS 1 M ethanolamine. • 10 mM sodium acetate pH 4.5 (Cat #BR-1003-50, GE Healthcare) • DMSO (Cat #D4540, Sigma) • P20 (Cat #BR-1000-54, GE Healthcare). • PBS (Cat #BR-1006-72, GE Healthcare). • EphA2 (Cat #13926-H08HD, Sino Biological)
In this experiment, the amino coupling method was used. The target protein EphA2 was directly immobilized on the CM5 chip using Biacore 8K. The compound to be tested as an analyte was then diluted to a required concentration gradient with a buffer (10 mM PBS, pH 7.4, 137 mM NaCl, 2.7 mM KCl, 5% DMSO, and 0.05% P20) for multi-cycle kinetic detection, in which each cycle is formed by 180 seconds of sample injection and 180 seconds of dissociation, and then the next cycle was performed, to obtain kinetic analysis data on the affinity of the target protein EphA2 to the compound to be tested. The final data were subjected to Kinetics fitting analysis based on a 1:1 model using Biacore Insight Evaluation Software (V 2.0.15.12933).
1) Preparation of the buffer: 10 mM PBS, pH 7.4, 137 mM NaCl, 2.7 mM KCl, 5% DMSO, and 0.05% P20.
2) Activation of the CM5 chip: The CM5 chip was activated with 400 mM EDC and 100 mM NHS at a flow rate of 10 μL/min for 420 seconds.
3) Coupling of the target protein: The target protein was diluted to 10 μg/mL with 10 mM sodium acetate (pH 4.5) and coupled at a flow rate of 10 μL/min for 284 s. The 1 #, 2 #, and 3 #channels on the chip were used in the experiment, and the coupling results were 1639.9RU, 1747.8RU, and 1702.2RU, respectively.
4) Blocking of the CM5 chip: The CM5 chip was blocked with 1 M ethanolamine at a flow rate of 10 μL/min for 420 seconds.
5) Analyte concentration: The compound to be tested was diluted with the buffer. The compound to be tested was diluted from 100 nM to 0.78 nM in a 2-fold gradient.
6) Sample injection analysis: Each concentration of the working solution of the compound to be tested corresponded to one cycle, with a flow rate of 30 μL/min for binding for 180 seconds and dissociating for 180 seconds. The last cycle was a 5% DMSO solvent correction cycle. 7) All results were subjected to kinetics fitting analysis based on a 1:1 model.
The experimental data of five effective concentrations of the compounds of the present invention were selected for Kinetics fitting analysis based on a 1:1 model using Biacore Insight Evaluation Software (V 2.0.15.12933).
For orientation: SPR reads the build-up and loss of mass on a sensor chip optically.

A further data set is described as follows: Stability in whole blood. In kind it is in vitro ADME, SD rats. The conditions noted are these: SD rat whole blood, 2 μM, 37° C. On the procedure:
To test the stability of the compounds of the present invention in whole blood from SD rats and Cynomolgus macaques.
The corresponding incubation plates, including T0, T10, T30, T60, T120, and T240 incubation plates, were added with a 2 μL working solution of the compound to be tested (100 μM). Three parallel wells were prepared for each sample. Then, 98 μL of blank whole blood from SD rats and Cynomolgus macaques was added to the corresponding incubation plates to which the working solution had been added. All samples were incubated in a 37° C. water bath. […] At the end of each incubation time point, the corresponding incubation plate was removed, added with stop buffer, precipitated, and centrifuged for 20 minutes. Then, 100 μL of the supernatant was diluted with 300 μL of ultrapure water, mixed uniformly, and then analyzed by the LC-MS/MS method. The concentration of the compound to be tested in the sample was semi-quantitatively determined by the liquid chromatography-tandem mass spectrometry (LC-MS/MS) method.

The term half-life denotes how long it takes for the measured level to halve. A lower half-life goes with fast loss. Usually Kd stands for a measure of binding affinity in units of concentration. Low values mean a tighter complex, high ones a looser complex. For the molecule `CC[C@H](C)[C@@H]([C@@H](CC(=O)N1CCC[C@H]1[C@H](OC)[C@@H](C)C(=O)N[C@H](C)[C@@H](O)c1ccccc1)OC)N(C)C(=O)[C@@H](NC(=O)[C@H](C(C)C)N(C)C(=O)OCc1ccc(NC(=O)[C@H](CCCNC(N)=O)NC(=O)[C@@H](NC(=O)CCCC(=O)NCCC(=O)N(C)CC(=O)N(C)CC(=O)N(C)CC(=O)N(C)CC(=O)N(C)CC(=O)N(C)CC(=O)N(C)CC(=O)N(C)CC(=O)N(C)CC(=O)N(C)CC(=O)N[C@H]2CCCCNC(=O)C[C@@H](C(=O)N[C@H]3CSCCC(=O)N4CN5CN(C4)C(=O)CCSC(C)(C)[C@@H](C(N)=O)NC(=O)[C@H](CCCCNC(=N)N)NC(=O)[C@H](Cc4c[nH]c6ccccc46)NC(=O)[C@@H](CC(=O)O)NC(=O)[C@@H]4CCCN4C(=O)[C@H](Cc4c[nH]cn4)NC(=O)[C@H](CC(C)C)NC(=O)[C@H](CSCCC5=O)NC(=O)[C@H](CC(C)C)NC(=O)[C@@H]4CCCN4C(=O)[C@H](CC(N)=O)NC(=O)[C@H](C(C)C)NC(=O)[C@H](CC(C)C)NC(=O)[C@@H]4C[C@@H](O)CN4C3=O)NC(=O)[C@H](CCCCNC(=N)N)NC2=O)C(C)C)cc1)C(C)C` [Acetate salt of PDC_8] (I: [Sar][Sar][Sar][Sar][Sar][Sar][Sar][Sar][Sar][Sar]K[hArg]DC[Hyp]LVNPLCLHP[dD]W[hArg][Pen]-NH2 / II: V[Cit][PABC][NMeV]V[Dil][Dolaproine]-X1; lactam I:11-I:13; linker I:14-I:21-I:28 via TATA; linker I:N-II:N via X2), the half-life in data set [1] is above 217 min; in the data set “Stability in whole blood”, 559 min. The CLint scaled in data set [1] (read-out: CLint (liver)) is below 17.8 mL/min/kg. Moreover, at Human EphA2, the affinity, expressed as Kd, was 3.46 nM.
